How the values were obtained:
[1] = bHA enzymatic assay of PH20 transiently expressed in lectin resistant CHO mutants; type: biochemical; conditions: pH5.5; for PH20 Activity (1:27): 1:27 dilution; for PH20 Activity (1:81): 1:81 dilution
Description: (§1) In short, a 4×BH 96-well plate was coated with biotinylated-HA (1.1 MDa). The 72 hour post transfection supernatant from cells transfected with human PH20 hyaluronidase carboxy-terminus deletion mutants was diluted in buffer at either pH 7.4 or pH 5.5 and added to individual wells of the plate and allowed to incubate at 37° C. for 90 minutes. The reaction was terminated by addition of 4M guanidine HCl. The wells were washed 4× with Phosphate Buffered Saline with Tween20 (PBST) to remove any digested biotinylated-HA followed by addition of streptavidin-HRP for 1 hour at room temperature. The wells were washed 4× with PBST and the plate was developed with TMB. The plate was read at 450 nm using an ELISA plate reader. Hyaluronidase activity (in Units/mL) was determined by interpolating the measured absorbance at 450 nm with a hyaluronidase reference standard curve. Full length mature human PH20 hyaluronidase and untransfected CHO cells were used as positive and negative controls.
The resulting cell culture media was analyzed by Western blot analysis and hyaluronidase activity was measured using the biotinylated HA enzymatic assay (as described in Examples 3 and 5 above).

[2] = Hyaluronidase activity of N-glycan site specific deglycosylation mutants (biotinylated-HA assay); type: biochemical; conditions: media of transfected CHO-S cells
Description: as §1
PH20sHis (SEQ ID NO:210) was used as a template for mutagenesis of each asparagine residue to alanine using QuikChange® Site-Directed Mutagenesis Kit (Cat No. 200518, Stratagene). […] Six single mutants were generated, one for each of the N-glycosylation sites. Additionally, three double mutants and a triple mutant were generated for asparagines N82, N166 and N254, all of which are occupied by complex type glycans. Finally, a double mutant N368A/N393A was generated, lacking high mannose glycans. The mutants were transfected into CHO—S cells and expression was performed as described in Example 2A. Secretion into the media and hyaluronidase activity were determined as described in Examples 3 and 5, above.

Row | Activity pH 5.5 ([2]; pH 5.5) | Activity pH 7.4 ([2]; pH 7.4) | Molecule | PH20 Activity (1:27) ([1]; expressed in Pro-5 cells) | PH20 Activity (1:81) ([1]; expressed in Pro-5 cells) | PH20 Activity (1:27) ([1]; expressed in Lec1 cells) | PH20 Activity (1:81) ([1]; expressed in Lec1 cells) | PH20 Activity (1:27) ([1]; expressed in Lec2 cells) | PH20 Activity (1:81) ([1]; expressed in Lec2 cells) | PH20 Activity (1:27) ([1]; expressed in Lec8 cells) | PH20 Activity (1:81) ([1]; expressed in Lec8 cells)
1 | – | – | HZ24-mut(B/S): plasmid encoding PH20 truncated at amino acid 482, SEQ ID NO:122 (protein, listed as Homo sapiens, soluble rHuPH20 36-482) LNFRAPPVIPNVPFLWAWNAPSEFCLGKFDEPLDMSLFSFIGSPRINATGQGVTIFYVDRLGYYPYIDSITGVTVNGGIPQKISLQDHLDKAKKDITFYMPVDNLGMAVIDWEEWRPTWARNWKPKDVYKNRSIELVQQQNVQLSLTEATEKAKQEFEKAGKDFLVETIKLGKLLRPNHLWGYYLFPDCYNHHYKKPGYNGSCFNVEIKRNDDLSWLWNESTALYPSIYLNTQQSPVAATLYVRNRVREAIRVSKIPDAKSPLPVFAYTRIVFTDQVLKFLSQDELVYTFGETVALGASGIVIWGTLSIMRSMKSCLLLDNYMETILNPYIINVTLAAKMCSQVLCQEQGVCIRKNWNSSDYLHLNPDNFAIQLEKGGKFTVRGKPTLEDLEQFSEKFYCSCYSTLSCKEKADVKDTDAVDVCIADGVCIDAFLKPPMETEEPQIFY | 0.6615 U/mL | 1.1745 U/mL | – | – | – | – | – | –
2 | YES | YES | HZ24-PH20sHis: his-tagged PH20 (SEQ ID NO:187), human PH20 clone with HexaHis tag after amino acid S490 (protein, His6 tag; PH20sHis) MGVLKFKHIFFRSFVKSSGVSQIVFTFLLIPCCLTLNFRAPPVIPNVPFLWAWNAPSEFCLGKFDEPLDMSLFSFIGSPRINATGQGVTIFYVDRLGYYPYIDSITGVTVNGGIPQKISLQDHLDKAKKDITFYMPVDNLGMAVIDWEEWRPTWARNWKPKDVYKNRSIELVQQQNVQLSLTEATEKAKQEFEKAGKDFLVETIKLGKLLRPNHLWGYYLFPDCYNHHYKKPGYNGSCFNVEIKRNDDLSWLWNESTALYPSIYLNTQQSPVAATLYVRNRVREAIRVSKIPDAKSPLPVFAYTRIVFTDQVLKFLSQDELVYTFGETVALGASGIVIWGTLSIMRSMKSCLLLDNYMETILNPYIINVTLAAKMCSQVLCQEQGVCIRKNWNSSDYLHLNPDNFAIQLEKGGKFTVRGKPTLEDLEQFSEKFYCSCYSTLSCKEKADVKDTDAVDVCIADGVCIDAFLKPPMETEEPQIFYNASPSTLSHHHHHH | 0.297 U/mL | 0.6075 U/mL | 0.54 U/mL | 0.7695 U/mL | 0.675 U/mL | 1.053 U/mL | 0.2565 U/mL | 0.567 U/mL

From patent US9284543B2, “Neutral active soluble truncated PH20 polypeptides and uses thereof” (Halozyme, Inc., priority 2008, dated 2016)
